Reference: article doi:10.1101/2022.07.28.501832

Molecular target: human RXFP4 on stably transfected CHO-K1 cells (human) (UniProt Q8TDU9)
Test: competitive binding of a europium-labelled ligand on cells

Sequence of UniProt Q8TDU9 (Q8TDU9 whole entry): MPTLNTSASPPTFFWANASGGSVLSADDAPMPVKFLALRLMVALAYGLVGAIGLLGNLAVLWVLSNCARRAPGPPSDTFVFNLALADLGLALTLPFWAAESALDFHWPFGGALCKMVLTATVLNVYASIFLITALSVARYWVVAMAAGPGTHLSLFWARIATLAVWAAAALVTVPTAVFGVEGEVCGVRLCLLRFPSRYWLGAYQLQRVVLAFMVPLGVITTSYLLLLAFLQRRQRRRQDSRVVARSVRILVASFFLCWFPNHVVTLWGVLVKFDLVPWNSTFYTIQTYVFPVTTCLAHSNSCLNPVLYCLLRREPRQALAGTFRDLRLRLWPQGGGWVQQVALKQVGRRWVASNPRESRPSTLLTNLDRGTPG

pKi: 8.19
Substance: recombinant two-chain human insulin-like peptide 5 (INSL5) (ligand)
